{
  "source": "patent US20040082080A1",
  "about": "“Method of measuring molecular interactions” (priority 2002, published 2004)",
  "target": "T1, low affinity nerve growth factor receptor, gp75 (Homo sapiens, UniProt P08138)",
  "T1 construct": "were expressed endogenously in A875 cells; endogenous in cells; host or cells: A875 cells",
  "T1 sequence (P08138 29-427)": "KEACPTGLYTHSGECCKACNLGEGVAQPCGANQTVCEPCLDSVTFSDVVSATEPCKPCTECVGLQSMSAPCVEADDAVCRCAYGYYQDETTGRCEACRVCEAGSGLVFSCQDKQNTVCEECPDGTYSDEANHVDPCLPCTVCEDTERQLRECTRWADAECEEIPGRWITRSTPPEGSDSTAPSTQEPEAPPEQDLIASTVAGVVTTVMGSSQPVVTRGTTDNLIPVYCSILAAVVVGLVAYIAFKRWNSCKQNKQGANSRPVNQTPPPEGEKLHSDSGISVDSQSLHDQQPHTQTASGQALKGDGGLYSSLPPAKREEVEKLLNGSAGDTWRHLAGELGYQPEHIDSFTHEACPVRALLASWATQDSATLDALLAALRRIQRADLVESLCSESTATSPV",
  "assay": "FCS autocorrelation on A875 cells, gp75 receptor stoichiometry",
  "format": "cell-based",
  "details": "180 nM NGF for 5 minutes",
  "from_the_text": "Macromolecular stoichiometry, i.e., the quantitative proportions with which two macromolecules interact, of a target can be determined from autocorrelation data. Starting with Equation 4, macromolecular stoichiometry can be calculated if it is assumed that intersystem crossing and particle diffusion are independent sources of fluctuation. The first occurs in the microsecond (μs) time domain and results from intersystem crossing of fluorophores between the singlet and triplet states. The second occurs in the millisecond (ms) time domain, and results from the diffusion of particles into and out of the confocal volume. […]\nwhere F1N′P defines the total number of fast diffusing particles, i.e., uncomplexed fluorescently tagged probes, and F2N′P defines the total number of slow diffusing complexes formed. […] S is obtained with Equation 8 for each target concentration using the parameter values obtained by fitting to Equation 6 and the calibration factor determined with Equation 7\nThe samples were analyzed using a fluorescence correlation spectroscopy instrument configured to distinct fluorescence emission at different wavelengths and a data processing program capable of autocorrelation, crosscorrelation, Fourier transform and Moment analyses. […]",
  "data": [
    {"substance": "nerve growth factor [NGF]", "values": [
      {"measurement": "stoichiometry calculation for gp75 (Equation 8)", "result": 0.94}
    ]}
  ]
}
